Reference: patent publication US20220135654A1 (GOVERNMENT OF THE UNITED STATES OF AMERICA AS REPRESENTED …, published 2022)

B1: sdAb clone B6 (VHH)
VHH: EVQLQASGGGLVQAGDSLRLSCVAVSGRTISTFAMGWFRQAPGKEREFVATINWSGSSARYADPVEGRFTISRDDAKNTVYLEMSSLKPGDSAVYYCASGRYLGGITSYSQGDFAPWGQGTQVTVSS
notes: also called Bt-B6
B2: sdAb clone A9 (VHH)
VHH: EVQLQASGGGLVQAGESLRLSCVVSGGAFRIMDMGWFRQVPGKQREVVGVISSGGYTNYADSVKGRFTISRDNAKRTVYLHMNSLKPEDTAVYYCNIIPKSDQGAVNTWGKGTLVSVSS
B3: sdAb clone E10 (VHH)
VHH: DVQLQASGGGLVQAGGSLRLSCAASARTFYTMGWFRQVLGKDREFVGAIRWGVYATTRYADSVKGRFSISRDDATNTVALQMNSLKPEDTAVYYCAARAGPLGFELSATSSAEYDYWGQGTQVTVSS

Assays:
[1] = target: SARS-CoV-2 receptor-binding domain (SARS-CoV-2, UniProt P0DTC2 319-541); assay: direct-binding MagPlex assay, biotinylated sdAb on RBD-coated microspheres
[2] = target: SARS-CoV-2 nucleocapsid protein (recombinant) (SARS-CoV-2, UniProt P0DTC9 1-419); assay: SPR (ProteOn XPR36), N immobilised on chip, sdAb in flow, 25 C

| Binder | binding result [1] | Kd [2] [nM] | koff [2] [s⁻¹] | kon [2] [M⁻¹ s⁻¹] |
| --- | --- | --- | --- | --- |
| B1 | no binding | 1.6 | 0.0003 | 190000 |
| B2 | no binding | – | – | – |
| B3 | no binding | 14 | 0.00095 | 69000 |
